Twelve substances from US20140175018A1 can be followed below.

Read-outs that look alike come from different tables or passages of the source.

Assay [1] deals with chemokine (C-X-C motif) receptor 3 (CXCR3) (human) (UniProt P49682). Nature of the assay: cell-based or functional assay.
The target of assay [2] is chemokine (C-X-C motif) receptor 4 (CXCR4) (human) (UniProt P61073). Nature of the assay: cell-based or functional assay.
The target of assay [3] is T1, chemokine (C-X-C motif) receptor 1 (CXCR1) (human) (UniProt P25024).
T1 sequence (looked up): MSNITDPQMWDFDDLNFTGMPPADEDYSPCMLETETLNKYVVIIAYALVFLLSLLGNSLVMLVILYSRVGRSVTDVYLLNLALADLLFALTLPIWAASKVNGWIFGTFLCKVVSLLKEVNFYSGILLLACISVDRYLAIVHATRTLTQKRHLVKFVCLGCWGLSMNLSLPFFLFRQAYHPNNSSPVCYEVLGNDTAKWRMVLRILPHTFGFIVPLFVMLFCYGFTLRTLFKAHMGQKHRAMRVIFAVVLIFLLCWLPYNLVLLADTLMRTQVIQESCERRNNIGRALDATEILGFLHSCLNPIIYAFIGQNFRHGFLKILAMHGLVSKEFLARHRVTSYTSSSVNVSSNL
Description: cell-based or functional assay.

Assay [4] addresses T1, chemokine (C-X-C motif) receptor 1 (CXCR1) (human). Description: cell-based or functional assay. The source holds these as a separate data set.
Assay [5] addresses chemokine (C-C motif) receptor 9 (CCR9) (human) (UniProt P51686). Description: cell-based or functional assay.
Assay [6] has the same target. Description: cell-based or functional assay. The source holds these as a separate data set.
Assay [7] addresses T2, chemokine (C-C motif) receptor 4 (CCR4) (human) (UniProt P51679).
T2 sequence (looked up): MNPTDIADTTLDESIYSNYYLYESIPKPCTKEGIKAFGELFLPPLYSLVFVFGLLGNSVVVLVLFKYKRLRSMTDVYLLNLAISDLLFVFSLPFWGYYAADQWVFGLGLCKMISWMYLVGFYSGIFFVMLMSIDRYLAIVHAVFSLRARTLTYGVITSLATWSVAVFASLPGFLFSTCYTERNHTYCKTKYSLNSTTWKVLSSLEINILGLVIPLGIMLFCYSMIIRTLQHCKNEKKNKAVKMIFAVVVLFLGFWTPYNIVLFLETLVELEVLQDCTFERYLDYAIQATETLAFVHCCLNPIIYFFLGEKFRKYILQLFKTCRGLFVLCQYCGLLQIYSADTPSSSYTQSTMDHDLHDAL
Description: cell-based or functional assay.

Assay [8] has as its target T3, chemokine (C-C motif) receptor 6 (CCR6) (human) (UniProt P51684).
T3 sequence (looked up): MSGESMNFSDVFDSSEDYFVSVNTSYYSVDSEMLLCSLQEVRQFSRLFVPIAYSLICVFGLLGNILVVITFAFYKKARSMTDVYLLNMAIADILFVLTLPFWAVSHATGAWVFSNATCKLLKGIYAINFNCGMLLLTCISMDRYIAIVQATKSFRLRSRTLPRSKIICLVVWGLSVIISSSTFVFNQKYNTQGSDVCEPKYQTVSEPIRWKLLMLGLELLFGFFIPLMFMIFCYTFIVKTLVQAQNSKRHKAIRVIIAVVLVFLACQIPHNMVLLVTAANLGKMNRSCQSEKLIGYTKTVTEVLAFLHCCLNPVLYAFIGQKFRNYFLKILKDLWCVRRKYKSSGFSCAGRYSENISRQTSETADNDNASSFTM
Description: cell-based or functional assay.

The target in assay [9] is chemokine (C-C motif) receptor 7 (CCR7) (human) (UniProt P32248). Description: cell-based or functional assay.
In assay [10] the target is chemokine (C-C motif) receptor 3 (CCR3) (human) (UniProt P51677). Description: cell-based or functional assay.
Assay [11] shares this target. Nature of the assay: blood passed through magnetic column with RANTES-coupled MACS beads; flow cytometry before and after. Background: A flow cytometer gives signals particle by particle.
The target is the same in assay [12]. Nature of the assay: blood passed through chemokine-coupled column; flow cytometry before and after.

Sequence of chemokine (C-C motif) receptor 3 (CCR3) (human) (P51677 whole entry): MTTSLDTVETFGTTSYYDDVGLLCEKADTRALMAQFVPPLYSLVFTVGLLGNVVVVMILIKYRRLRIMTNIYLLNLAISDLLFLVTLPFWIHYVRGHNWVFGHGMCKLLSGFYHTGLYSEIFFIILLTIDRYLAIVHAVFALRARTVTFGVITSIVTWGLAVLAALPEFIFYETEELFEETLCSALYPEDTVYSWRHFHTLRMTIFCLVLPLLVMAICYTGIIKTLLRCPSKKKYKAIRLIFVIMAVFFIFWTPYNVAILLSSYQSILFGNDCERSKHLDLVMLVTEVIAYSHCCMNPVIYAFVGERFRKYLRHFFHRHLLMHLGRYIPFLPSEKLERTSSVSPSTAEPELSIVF
Sequence of recombinant native IL-8 (P10145 28-99 limits assumed): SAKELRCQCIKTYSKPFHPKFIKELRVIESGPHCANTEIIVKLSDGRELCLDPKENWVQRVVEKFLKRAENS
Sequence of chemokine (C-X-C motif) receptor 3 (CXCR3) (human) (P49682 whole entry): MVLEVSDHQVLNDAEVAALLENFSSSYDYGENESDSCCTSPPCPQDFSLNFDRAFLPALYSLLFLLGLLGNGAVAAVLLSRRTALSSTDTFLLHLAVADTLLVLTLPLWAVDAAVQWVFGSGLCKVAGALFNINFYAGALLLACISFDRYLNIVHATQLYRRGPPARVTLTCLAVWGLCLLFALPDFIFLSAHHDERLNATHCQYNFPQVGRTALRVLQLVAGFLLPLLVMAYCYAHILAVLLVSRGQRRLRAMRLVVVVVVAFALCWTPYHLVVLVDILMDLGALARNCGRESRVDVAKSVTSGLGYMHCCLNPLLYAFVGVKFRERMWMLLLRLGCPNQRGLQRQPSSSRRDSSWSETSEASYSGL
Sequence of chemokine (C-C motif) receptor 9 (CCR9) (human) (P51686 whole entry): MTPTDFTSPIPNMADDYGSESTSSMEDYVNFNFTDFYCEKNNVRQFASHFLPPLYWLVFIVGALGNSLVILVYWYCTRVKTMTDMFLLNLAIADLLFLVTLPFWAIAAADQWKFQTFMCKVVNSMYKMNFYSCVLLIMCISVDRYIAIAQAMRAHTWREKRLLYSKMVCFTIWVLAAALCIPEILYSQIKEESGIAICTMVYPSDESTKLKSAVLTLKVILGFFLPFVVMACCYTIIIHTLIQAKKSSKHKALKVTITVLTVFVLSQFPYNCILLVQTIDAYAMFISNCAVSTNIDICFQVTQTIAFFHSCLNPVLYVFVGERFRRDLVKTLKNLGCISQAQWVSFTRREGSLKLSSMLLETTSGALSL
Sequence of recombinant native TARC (Q92583 24-94 limits assumed): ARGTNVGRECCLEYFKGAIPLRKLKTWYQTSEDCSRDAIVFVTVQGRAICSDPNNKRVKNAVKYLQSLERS
Sequence of chemokine (C-C motif) receptor 7 (CCR7) (human) (P32248 25-378): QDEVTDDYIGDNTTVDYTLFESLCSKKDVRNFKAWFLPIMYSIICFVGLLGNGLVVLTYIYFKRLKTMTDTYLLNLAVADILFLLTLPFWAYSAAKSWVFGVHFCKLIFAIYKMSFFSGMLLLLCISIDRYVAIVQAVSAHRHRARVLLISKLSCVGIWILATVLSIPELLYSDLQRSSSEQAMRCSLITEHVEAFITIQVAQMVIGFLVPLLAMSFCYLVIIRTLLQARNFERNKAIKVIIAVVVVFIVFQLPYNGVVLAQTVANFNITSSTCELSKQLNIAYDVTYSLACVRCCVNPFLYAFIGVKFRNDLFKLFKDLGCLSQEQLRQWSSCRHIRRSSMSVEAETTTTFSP
Sequence of UniProt Q92583 (Q92583 other isoform, or with tags, fused parts or gaps limits assumed): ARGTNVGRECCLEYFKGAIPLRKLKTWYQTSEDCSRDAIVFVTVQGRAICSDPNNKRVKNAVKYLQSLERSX
Sequence of chemokine (C-X-C motif) receptor 4 (CXCR4) (human) (P61073 whole entry): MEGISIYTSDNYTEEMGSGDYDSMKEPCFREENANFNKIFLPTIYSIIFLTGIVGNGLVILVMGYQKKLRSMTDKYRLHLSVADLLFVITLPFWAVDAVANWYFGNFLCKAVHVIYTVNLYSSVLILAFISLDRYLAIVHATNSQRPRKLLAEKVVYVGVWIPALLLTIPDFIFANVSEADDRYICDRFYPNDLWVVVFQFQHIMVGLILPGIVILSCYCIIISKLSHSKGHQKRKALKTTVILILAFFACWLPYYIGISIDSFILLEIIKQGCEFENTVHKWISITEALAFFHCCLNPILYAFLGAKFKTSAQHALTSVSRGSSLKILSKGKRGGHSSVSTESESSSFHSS
Sequence of UniProt P10145 (P10145 other isoform, or with tags, fused parts or gaps limits assumed): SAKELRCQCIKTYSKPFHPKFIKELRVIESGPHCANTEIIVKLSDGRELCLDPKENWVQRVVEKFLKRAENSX
Sequence of recombinant native MIP-3a (P78556 27-96 limits assumed): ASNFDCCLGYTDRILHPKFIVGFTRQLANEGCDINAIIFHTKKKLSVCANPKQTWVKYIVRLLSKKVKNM

On to “recombinant native IP-10 (from UniProt P02778 22-98) (ligand)”, for which, in [1], the EC50 (agonist activity, Aequorin assay) came to 4.4 nM.
“biotinSDF-1a (CXCL12): SDF-1a derivatised at Lys(64) with Biotin (from UniProt P48061 22-67) (ligand)” registered an EC50 (agonist activity, Aequorin assay) in [2] of 17.3 nM.
Consider “recombinant native IL-8 (from UniProt P10145 28-99) (ligand)”, for which the EC50 (agonist activity, Aequorin assay) was 4.1 nM in assay [3] and 4.2 nM in assay [4].
In the case of “recombinant native TECK (from UniProt O15444 24-150) (ligand)”, the EC50 (agonist activity, Aequorin assay) in assay [5] and in [6] was 67.9 nM in each case.
In the case of “biotinTARC (CCL17): TARC derivatised at Lys(72) with PEG-Biotin (from UniProt Q92583 24-94) (ligand)”, in assay [7], the EC50 (agonist activity, Aequorin assay) amounted to 3.1 nM.
Substance “recombinant native MIP-3a (from UniProt P78556 27-96) (ligand)” yielded an EC50 (agonist activity, Aequorin assay) in assay [8] of 1 nM.
For the substance “recombinant native TARC (from UniProt Q92583 24-94) (ligand)”, in assay [7], the EC50 (agonist activity, Aequorin assay) was 2.6 nM.
With “biotinIP-10 (CXCL10): IP-10 derivatised with Biotin at an additional C-terminal Lysine after a PEG spacer (from UniProt P02778 22-98) (ligand)”, in assay [1], the EC50 (agonist activity, Aequorin assay) is 8.7 nM.
Consider “recombinant native MIP-3b (from UniProt Q99731 22-98) (ligand)”, for which the EC50 (agonist activity, Aequorin assay) in [9] turned out to be 1.6 nM.
As to “biotinIL-8 (6-78): IL-8 (6-78) derivatised at Lys(78) with PEG-Biotin (from UniProt P10145 28-99) (ligand)”, the EC50 (agonist activity, Aequorin assay) in [4] came out at 6.1 nM.
Regarding “recombinant native eotaxin (from UniProt P51671 24-97) (ligand)”, in assay [10], the EC50 (agonist, Aequorin assay) worked out at 10.7 nM.
As for “biotinRANTES (CCL5): RANTES derivatised at Lys(67) with Biotin (from UniProt P13501 24-91) (ligand)”, the percent reduction of chemokine receptor-expressing cells (CCR1, 3 or 5, not told apart) in [11] and in assay [12] was 20% throughout.
